Data reported in US20030162229A1.
Where no end group is shown, it is not given here. The star is where a group is joined. Biotin = O=C1N[C@H]2[C@H](CS[C@H]2CCCCC(=O)*)N1

B1: non-biotinylated peptide #5 with NH2-Cys-Ser-Lys-Lys-Gly amino terminal spacer (peptide)
peptide: H-CSKKGWSPSALRLLQRPPE
B2: non-biotinylated peptide #20 with NH2-Cys-Ser-Lys-Lys-Gly amino terminal spacer (peptide)
peptide: H-CSKKGPNLSLPVPGAPPTP
B3: biotinylated peptide #5 (Set 1) of the human (alpha)C subunit (peptide)
peptide: Biotin-SGSGWSPSALRLLQRPPE
B4: biotinylated peptide #30 (Set 1) of the human (alpha)C subunit (peptide)
peptide: Biotin-SGSGRTTSDGGYSFKYET
B5: biotinylated peptide #18 (Set 1) of the human (alpha)C subunit (peptide)
peptide: Biotin-SGSGGGCGLHIPPNLSLP
B6: biotinylated peptide #29 (Set 1) of the human (alpha)C subunit (peptide)
peptide: Biotin-SGSGPLHVRTTSDGGYSF
B7: biotinylated peptide #33 (Set 1) of the human (alpha)C subunit (peptide)
peptide: Biotin-SGSGETVPNLLTQHCACI
modifications: cysteine pairing not given here
B8: biotinylated peptide #24 (Set 1) of the human (alpha)C subunit (peptide)
peptide: Biotin-SGSGPYSLLPGAQPCCAA
modifications: cysteine pairing not given here
B9: biotinylated peptide #7 (Set 1) of the human (alpha)C subunit (peptide)
peptide: Biotin-SGSGLQRPPEEPAAHANC
B10: biotinylated peptide #19 (Set 1) of the human (alpha)C subunit (peptide)
peptide: Biotin-SGSGLHIPPNLSLPVPGA
B11: biotinylated peptide #25 (Set 1) of the human (alpha)C subunit (peptide)
peptide: Biotin-SGSGLPGAQPCCAALPGT
modifications: cysteine pairing not given here
B12: biotinylated peptide #6 (Set 1) of the human (alpha)C subunit (peptide)
peptide: Biotin-SGSGALRLLQRPPEEPAA
B13: biotinylated peptide #27 (Set 1) of the human (alpha)C subunit (peptide)
peptide: Biotin-SGSGAALPGTMRPLHVRT
B14: biotinylated peptide #23 (Set 1) of the human (alpha)C subunit (peptide)
peptide: Biotin-SGSGTPAQPYSLLPGAQP
B15: biotinylated peptide #31 (Set 1) of the human (alpha)C subunit (peptide)
peptide: Biotin-SGSGDGGYSFKYETVPNL
B16: biotinylated peptide #20 (Set 1) of the human (alpha)C subunit (peptide)
peptide: Biotin-SGSGPNLSLPVPGAPPTP
B17: biotinylated peptide #8 (Set 1) of the human (alpha)C subunit (peptide)
peptide: Biotin-SGSGPEEPAAHANCHRVA
B18: biotinylated peptide #22 (Set 1) of the human (alpha)C subunit (peptide)
peptide: Biotin-SGSGGAPPTPAQPYSLLP
B19: biotinylated peptide #3 (Set 1) of the human (alpha)C subunit (peptide)
peptide: Biotin-SGSGSTPLMSWPWSPSAL
B20: biotinylated peptide #32 (Set 1) of the human (alpha)C subunit (peptide)
peptide: Biotin-SGSGSFKYETVPNLLTQH
B21: biotinylated peptide #28 (Set 1) of the human (alpha)C subunit (peptide)
peptide: Biotin-SGSGGTMRPLHVRTTSDG
B22: biotinylated peptide #21 (Set 1) of the human (alpha)C subunit (peptide)
peptide: Biotin-SGSGLPVPGAPPTPAQPY
B23: biotinylated peptide #17 (Set 1) of the human (alpha)C subunit (peptide)
peptide: Biotin-SGSGHYCHGGCGLHIPPN
modifications: cysteine pairing not given here
B24: biotinylated peptide #26 (Set 1) of the human (alpha)C subunit (peptide)
peptide: Biotin-SGSGQPCCAALPGTMRPL
modifications: cysteine pairing not given here
B25: biotinylated peptide #4 (Set 1) of the human (alpha)C subunit (peptide)
peptide: Biotin-SGSGMSWPWSPSALRLLQ
B26: biotinylated peptide #9 (Set 1) of the human (alpha)C subunit (peptide)
peptide: Biotin-SGSGAAHANCHRVALNIS
B27: biotinylated peptide #16 (Set 1) of the human (alpha)C subunit (peptide)
peptide: Biotin-SGSGSFIFHYCHGGCGLH
modifications: cysteine pairing not given here
B28: biotinylated peptide #13 (Set 1) of the human (alpha)C subunit (peptide)
peptide: Biotin-SGSGELGWERWIVYPPSF
B29: biotinylated peptide #14 (Set 1) of the human (alpha)C subunit (peptide)
peptide: Biotin-SGSGERWIVYPPSFIFHY
B30: biotinylated peptide #12 (Set 1) of the human (alpha)C subunit (peptide)
peptide: Biotin-SGSGISFQELGWERWIVY
B31: biotinylated peptide #11 (Set 1) of the human (alpha)C subunit (peptide)
peptide: Biotin-SGSGVALNISFQELGWER
B32: biotinylated peptide #10 (Set 1) of the human (alpha)C subunit (peptide)
peptide: Biotin-SGSGNCHRVALNISFQEL
B33: biotinylated peptide #15 (Set 1) of the human (alpha)C subunit (peptide)
peptide: Biotin-SGSGVYPPSFIFHYCHGG
B34: non-biotinylated peptide #30 with NH2-Cys-Ser-Lys-Lys-Gly amino terminal spacer (peptide)
peptide: H-CSKKGRTTSDGGYSFKYET
B35: human recombinant 30 kDa inhibin A (ligand)
chain 1: STPLMSWPWSPSALRLLQRPPEEPAAHANCHRVALNISFQELGWERWIVYPPSFIFHYCHGGCGLHIPPNLSLPVPGAPPTPAQPYSLLPGAQPCCAALPGTMRPLHVRTTSDGGYSFKYETVPNLLTQHCACI
chain 2: GLECDGKVNICCKKQFFVSFKDIGWNDWIIAPSGYHANYCEGECPSHIAGTSGSSLSFHSTVINHYRMRGHSPFANLKSCCVPTKLRPMSMLYYDDGQNIIKKDIQNMIVEECGCS

biological target: antibody pair of the (alpha)C IFMA: As #128 as coating antibody and As #41 as label; assay: inhibin IFMA; #5 on As #128 and #5 on As #41

| % suppression at 2ng inhibin | Molecule |
| --- | --- |
| 73% | B1 |

biological target: antiserum As #41 (sheep polyclonal, raised to the alpha subunit of human inhibin); assay: two-site assay, biotinylated As #41 pre-incubated with peptide, inhibin on As #128 plate

| % inhibition | Molecule |
| --- | --- |
| 50% | B1 |

biological target: antiserum As #41 (sheep polyclonal, raised to the alpha subunit of human inhibin); assay: inhibin IFMA; buffer on As #128, #5 on As #41

| % suppression at 2ng inhibin | Molecule |
| --- | --- |
| 67% | B1 |

biological target: antiserum As #128 (sheep polyclonal, raised to the alpha subunit of human inhibin, boosted with human recombinant 30-kDa inhibin); assay: inhibin IFMA; #20 on As #128, buffer on As #41

| % suppression at 2ng inhibin | Molecule |
| --- | --- |
| 13% | B2 |

biological target: antiserum As #41 (sheep polyclonal, raised to the alpha subunit of human inhibin); assay: competitive 2-site assay, peptides incubated with iodinated As #41

| % contribution (competition with inhibin) | Molecule |
| --- | --- |
| 50% | B3 |
| 50% | B4 |

biological target: antiserum As #128 (sheep polyclonal, raised to the alpha subunit of human inhibin, boosted with human recombinant 30-kDa inhibin); assay: two-site assay, peptide pre-incubated on As #128 coated plate, then hr-inhibin, biotinylated As #41

| % suppression in binding | Molecule |
| --- | --- |
| 65% | B1 |
| 23% | B2 |

biological target: antiserum As #128 (sheep polyclonal, raised to the alpha subunit of human inhibin, boosted with human recombinant 30-kDa inhibin); assay: RIA, competition with iodinated inhibin

| ED50 | Molecule |
| --- | --- |
| 60 nM | B5 |
| 156 nM | B6 |
| 2500 nM | B7 |
| 900 nM | B8 |
| 1600 nM | B9 |
| < 10 nM | B10 |
| 2000 nM | B11 |
| 1800 nM | B12 |
| 3800 nM | B3 |
| 2000 nM | B13 |
| 500 nM | B14 |
| 1400 nM | B15 |
| 20 nM | B16 |
| 4800 nM | B17 |
| 156 nM | B18 |
| 38000 nM | B19 |
| 2500 nM | B20 |
| 600 nM | B4 |
| 625 nM | B21 |
| 156 nM | B22 |
| 10000 nM | B23 |
| 625 nM | B24 |
| 3800 nM | B25 |

biological target: antiserum As #41 (sheep polyclonal, raised to the alpha subunit of human inhibin); assay: RIA, competition with iodinated inhibin

| ED50 | Molecule |
| --- | --- |
| 1050 nM | B5 |
| 5000 nM | B6 |
| 4000 nM | B7 |
| 6200 nM | B8 |
| 1250 nM | B9 |
| 2100 nM | B10 |
| 5000 nM | B11 |
| 26 nM | B12 |
| 0.015 nM | B3 |
| 5000 nM | B13 |
| 6200 nM | B14 |
| 2400 nM | B15 |
| 3600 nM | B16 |
| 5000 nM | B18 |
| 290 nM | B20 |
| 2500 nM | B4 |
| 4000 nM | B21 |
| 1000 nM | B22 |
| 1050 nM | B23 |
| 1000 nM | B24 |
| 1300 nM | B25 |

biological target: rabbit antiserum #1989; assay: RIA, competition with iodinated inhibin

| ED50 | Molecule |
| --- | --- |
| > 2500 nM | B26 |
| > 2500 nM | B5 |
| > 2500 nM | B6 |
| > 2500 nM | B7 |
| > 2500 nM | B8 |
| > 2500 nM | B9 |
| > 2500 nM | B27 |
| > 2500 nM | B10 |
| > 2500 nM | B11 |
| > 2500 nM | B12 |
| > 2500 nM | B28 |
| > 2500 nM | B3 |
| > 2500 nM | B13 |
| > 2500 nM | B14 |
| > 2500 nM | B29 |
| > 2500 nM | B15 |

| ED50 | Molecule |
| --- | --- |
| > 2500 nM | B16 |
| > 2500 nM | B17 |
| > 2500 nM | B18 |
| > 2500 nM | B19 |
| > 2500 nM | B20 |
| > 2500 nM | B30 |
| > 2500 nM | B31 |
| < 10 nM | B4 |
| > 2500 nM | B21 |
| > 2500 nM | B32 |
| > 2500 nM | B33 |
| > 2500 nM | B22 |
| > 2500 nM | B23 |
| > 2500 nM | B24 |
| > 2500 nM | B25 |

biological target: antiserum As #128 (sheep polyclonal, raised to the alpha subunit of human inhibin, boosted with human recombinant 30-kDa inhibin); assay: inhibin IFMA; #5 on As #128, buffer on As #41

| % suppression at 2ng inhibin | Molecule |
| --- | --- |
| 55% | B1 |

biological target: antiserum As #41 (sheep polyclonal, raised to the alpha subunit of human inhibin); assay: inhibin IFMA; buffer on As #128, #30 on As #41

| % suppression at 2ng inhibin | Molecule |
| --- | --- |
| 28% | B34 |

biological target: human recombinant 30 kDa inhibin A (human) (UniProt P05111); assay: RIA, iodinated human inhibin A tracer vs human recombinant inhibin A

| ED25 (affinity for inhibin) | Molecule |
| --- | --- |
| 1.6 nM | R1 monoclonal antibody (Groome), inhibin (alpha)C subunit |

biological target: antiserum As #128 (sheep polyclonal, raised to the alpha subunit of human inhibin, boosted with human recombinant 30-kDa inhibin); assay: RIA, iodinated hr-inhibin tracer

| ED50 | Molecule |
| --- | --- |
| 2 nM | B35 |
| 150 nM | B2 |

biological target: antiserum As #41 (sheep polyclonal, raised to the alpha subunit of human inhibin); assay: RIA, iodinated hr-inhibin tracer

| ED50 | Molecule |
| --- | --- |
| 0.4 nM | B1 |

biological target: rabbit antiserum #1989; assay: RIA, iodinated hr-inhibin tracer

| ED50 | Molecule |
| --- | --- |
| 0.1 nM | B35 |
| 2500 nM | B34 |
